Measurements: patent US20240270846A1 (published 2024)

B1: GLS3000 R29T (Kabat) L chain altered form, one-arm antibody with CE115HA000 (antibody, human IgG1, kappa, L234A L235A, N297A, name in Kabat numbering)
heavy: QVQLVESGGGVVQPGRSLRLSCAASGFTFSNAWMHWVRQAPGKGLEWVAQIKAKSNNYATYYAESVKGRFTISRDDSKNSLYLQMNSLKTEDTAVYYCRYVHYGAYYGVDAWGQGTTVTVSSASTKGPSVFPLAPSSKSTSGGTAALGCLVKDYFPEPVTVSWNSGALTSGVHTFPAVLQSSGLYSLSSVVTVPSSSLGTQTYICNVNHKPSNTKVDKKVEPKSCDKTHTCPPCPAPEAAGGPSVFLFPPKPKDTLMISRTPEVTCVVVDVSHEDPEVKFNWYVDGVEVHNAKTKPREEQYASTYRVVSVLTVLHQDWLNGKEYKCKVSNKALPAPIEKTISKAKGQPREPQVYTLPPSRCELTKNQVSLSCAVKGFYPSDIAVEWESNGQPENNYKTTPPVLDSDGSFFLVSKLTVDKSRWQQGNVFSCSVMHEALHNHYTQKSLSLSPDYKDDDDK
chain: EPKSSDKTHTCPPCPAPELLGGPSVFLFPPKPKDTLMISRTPEVTCVVVDVSHEDPEVKFNWYVDGVEVHNAKTKPREEQYNSTYRVVSVLTVLHQDWLNGKEYKCKVSNKALPAPIEKTISKAKGQPREPQVCTLPPSRDELTKNQVSLWCLVKGFYPSDIAVEWESNGQPENNYKTTPPVLDSDGSFFLYSKLTVDKSRWQQGNVFSCSVMHEALHNRYTQKSLSLSP
light: DIVMTQSPLSLPVTPGEPASISCRSSQSLVHSNTNTYLHWYQQKPGQAPRLLIYKVSNRFSGVPDRFSGSGSGTDFTLKISRVEAEDVGVYYCGQGTQVPYTFGQGTKLEIKRTVAAPSVFIFPPSDEQLKSGTASVVCLLNNFYPREAKVQWKVDNALQSGNSQESVTEQDSKDSTYSLSSTLTLSKADYEKHKVYACEVTHQGLSSPVTKSFNRGEC
notes: one-arm antibody
B2: GLS3000 R54A (Kabat) L chain altered form, one-arm antibody with CE115HA000 (antibody, human IgG1, kappa, L234A L235A, N297A, name in Kabat numbering)
heavy: QVQLVESGGGVVQPGRSLRLSCAASGFTFSNAWMHWVRQAPGKGLEWVAQIKAKSNNYATYYAESVKGRFTISRDDSKNSLYLQMNSLKTEDTAVYYCRYVHYGAYYGVDAWGQGTTVTVSSASTKGPSVFPLAPSSKSTSGGTAALGCLVKDYFPEPVTVSWNSGALTSGVHTFPAVLQSSGLYSLSSVVTVPSSSLGTQTYICNVNHKPSNTKVDKKVEPKSCDKTHTCPPCPAPEAAGGPSVFLFPPKPKDTLMISRTPEVTCVVVDVSHEDPEVKFNWYVDGVEVHNAKTKPREEQYASTYRVVSVLTVLHQDWLNGKEYKCKVSNKALPAPIEKTISKAKGQPREPQVYTLPPSRCELTKNQVSLSCAVKGFYPSDIAVEWESNGQPENNYKTTPPVLDSDGSFFLVSKLTVDKSRWQQGNVFSCSVMHEALHNHYTQKSLSLSPDYKDDDDK
chain: EPKSSDKTHTCPPCPAPELLGGPSVFLFPPKPKDTLMISRTPEVTCVVVDVSHEDPEVKFNWYVDGVEVHNAKTKPREEQYNSTYRVVSVLTVLHQDWLNGKEYKCKVSNKALPAPIEKTISKAKGQPREPQVCTLPPSRDELTKNQVSLWCLVKGFYPSDIAVEWESNGQPENNYKTTPPVLDSDGSFFLYSKLTVDKSRWQQGNVFSCSVMHEALHNRYTQKSLSLSP
light: DIVMTQSPLSLPVTPGEPASISCRSSQSLVHSNRNTYLHWYQQKPGQAPRLLIYKVSNAFSGVPDRFSGSGSGTDFTLKISRVEAEDVGVYYCGQGTQVPYTFGQGTKLEIKRTVAAPSVFIFPPSDEQLKSGTASVVCLLNNFYPREAKVQWKVDNALQSGNSQESVTEQDSKDSTYSLSSTLTLSKADYEKHKVYACEVTHQGLSSPVTKSFNRGEC
notes: one-arm antibody
B3: GLS3000 S25D (Kabat) L chain altered form, one-arm antibody with CE115HA000 (antibody, human IgG1, kappa, L234A L235A, N297A, name in Kabat numbering)
heavy: QVQLVESGGGVVQPGRSLRLSCAASGFTFSNAWMHWVRQAPGKGLEWVAQIKAKSNNYATYYAESVKGRFTISRDDSKNSLYLQMNSLKTEDTAVYYCRYVHYGAYYGVDAWGQGTTVTVSSASTKGPSVFPLAPSSKSTSGGTAALGCLVKDYFPEPVTVSWNSGALTSGVHTFPAVLQSSGLYSLSSVVTVPSSSLGTQTYICNVNHKPSNTKVDKKVEPKSCDKTHTCPPCPAPEAAGGPSVFLFPPKPKDTLMISRTPEVTCVVVDVSHEDPEVKFNWYVDGVEVHNAKTKPREEQYASTYRVVSVLTVLHQDWLNGKEYKCKVSNKALPAPIEKTISKAKGQPREPQVYTLPPSRCELTKNQVSLSCAVKGFYPSDIAVEWESNGQPENNYKTTPPVLDSDGSFFLVSKLTVDKSRWQQGNVFSCSVMHEALHNHYTQKSLSLSPDYKDDDDK
chain: EPKSSDKTHTCPPCPAPELLGGPSVFLFPPKPKDTLMISRTPEVTCVVVDVSHEDPEVKFNWYVDGVEVHNAKTKPREEQYNSTYRVVSVLTVLHQDWLNGKEYKCKVSNKALPAPIEKTISKAKGQPREPQVCTLPPSRDELTKNQVSLWCLVKGFYPSDIAVEWESNGQPENNYKTTPPVLDSDGSFFLYSKLTVDKSRWQQGNVFSCSVMHEALHNRYTQKSLSLSP
light: DIVMTQSPLSLPVTPGEPASISCRDSQSLVHSNRNTYLHWYQQKPGQAPRLLIYKVSNRFSGVPDRFSGSGSGTDFTLKISRVEAEDVGVYYCGQGTQVPYTFGQGTKLEIKRTVAAPSVFIFPPSDEQLKSGTASVVCLLNNFYPREAKVQWKVDNALQSGNSQESVTEQDSKDSTYSLSSTLTLSKADYEKHKVYACEVTHQGLSSPVTKSFNRGEC
notes: one-arm antibody
B4: GLS3000 R29V (Kabat) L chain altered form, one-arm antibody with CE115HA000 (antibody, human IgG1, kappa, L234A L235A, N297A, name in Kabat numbering)
heavy: QVQLVESGGGVVQPGRSLRLSCAASGFTFSNAWMHWVRQAPGKGLEWVAQIKAKSNNYATYYAESVKGRFTISRDDSKNSLYLQMNSLKTEDTAVYYCRYVHYGAYYGVDAWGQGTTVTVSSASTKGPSVFPLAPSSKSTSGGTAALGCLVKDYFPEPVTVSWNSGALTSGVHTFPAVLQSSGLYSLSSVVTVPSSSLGTQTYICNVNHKPSNTKVDKKVEPKSCDKTHTCPPCPAPEAAGGPSVFLFPPKPKDTLMISRTPEVTCVVVDVSHEDPEVKFNWYVDGVEVHNAKTKPREEQYASTYRVVSVLTVLHQDWLNGKEYKCKVSNKALPAPIEKTISKAKGQPREPQVYTLPPSRCELTKNQVSLSCAVKGFYPSDIAVEWESNGQPENNYKTTPPVLDSDGSFFLVSKLTVDKSRWQQGNVFSCSVMHEALHNHYTQKSLSLSPDYKDDDDK
chain: EPKSSDKTHTCPPCPAPELLGGPSVFLFPPKPKDTLMISRTPEVTCVVVDVSHEDPEVKFNWYVDGVEVHNAKTKPREEQYNSTYRVVSVLTVLHQDWLNGKEYKCKVSNKALPAPIEKTISKAKGQPREPQVCTLPPSRDELTKNQVSLWCLVKGFYPSDIAVEWESNGQPENNYKTTPPVLDSDGSFFLYSKLTVDKSRWQQGNVFSCSVMHEALHNRYTQKSLSLSP
light: DIVMTQSPLSLPVTPGEPASISCRSSQSLVHSNVNTYLHWYQQKPGQAPRLLIYKVSNRFSGVPDRFSGSGSGTDFTLKISRVEAEDVGVYYCGQGTQVPYTFGQGTKLEIKRTVAAPSVFIFPPSDEQLKSGTASVVCLLNNFYPREAKVQWKVDNALQSGNSQESVTEQDSKDSTYSLSSTLTLSKADYEKHKVYACEVTHQGLSSPVTKSFNRGEC
notes: one-arm antibody
B5: GLS3000 R29Y (Kabat) L chain altered form, one-arm antibody with CE115HA000 (antibody, human IgG1, kappa, L234A L235A, N297A, name in Kabat numbering)
heavy: QVQLVESGGGVVQPGRSLRLSCAASGFTFSNAWMHWVRQAPGKGLEWVAQIKAKSNNYATYYAESVKGRFTISRDDSKNSLYLQMNSLKTEDTAVYYCRYVHYGAYYGVDAWGQGTTVTVSSASTKGPSVFPLAPSSKSTSGGTAALGCLVKDYFPEPVTVSWNSGALTSGVHTFPAVLQSSGLYSLSSVVTVPSSSLGTQTYICNVNHKPSNTKVDKKVEPKSCDKTHTCPPCPAPEAAGGPSVFLFPPKPKDTLMISRTPEVTCVVVDVSHEDPEVKFNWYVDGVEVHNAKTKPREEQYASTYRVVSVLTVLHQDWLNGKEYKCKVSNKALPAPIEKTISKAKGQPREPQVYTLPPSRCELTKNQVSLSCAVKGFYPSDIAVEWESNGQPENNYKTTPPVLDSDGSFFLVSKLTVDKSRWQQGNVFSCSVMHEALHNHYTQKSLSLSPDYKDDDDK
chain: EPKSSDKTHTCPPCPAPELLGGPSVFLFPPKPKDTLMISRTPEVTCVVVDVSHEDPEVKFNWYVDGVEVHNAKTKPREEQYNSTYRVVSVLTVLHQDWLNGKEYKCKVSNKALPAPIEKTISKAKGQPREPQVCTLPPSRDELTKNQVSLWCLVKGFYPSDIAVEWESNGQPENNYKTTPPVLDSDGSFFLYSKLTVDKSRWQQGNVFSCSVMHEALHNRYTQKSLSLSP
light: DIVMTQSPLSLPVTPGEPASISCRSSQSLVHSNYNTYLHWYQQKPGQAPRLLIYKVSNRFSGVPDRFSGSGSGTDFTLKISRVEAEDVGVYYCGQGTQVPYTFGQGTKLEIKRTVAAPSVFIFPPSDEQLKSGTASVVCLLNNFYPREAKVQWKVDNALQSGNSQESVTEQDSKDSTYSLSSTLTLSKADYEKHKVYACEVTHQGLSSPVTKSFNRGEC
notes: one-arm antibody
B6: GLS3000 S25A (Kabat) L chain altered form, one-arm antibody with CE115HA000 (antibody, human IgG1, kappa, L234A L235A, N297A, name in Kabat numbering)
heavy: QVQLVESGGGVVQPGRSLRLSCAASGFTFSNAWMHWVRQAPGKGLEWVAQIKAKSNNYATYYAESVKGRFTISRDDSKNSLYLQMNSLKTEDTAVYYCRYVHYGAYYGVDAWGQGTTVTVSSASTKGPSVFPLAPSSKSTSGGTAALGCLVKDYFPEPVTVSWNSGALTSGVHTFPAVLQSSGLYSLSSVVTVPSSSLGTQTYICNVNHKPSNTKVDKKVEPKSCDKTHTCPPCPAPEAAGGPSVFLFPPKPKDTLMISRTPEVTCVVVDVSHEDPEVKFNWYVDGVEVHNAKTKPREEQYASTYRVVSVLTVLHQDWLNGKEYKCKVSNKALPAPIEKTISKAKGQPREPQVYTLPPSRCELTKNQVSLSCAVKGFYPSDIAVEWESNGQPENNYKTTPPVLDSDGSFFLVSKLTVDKSRWQQGNVFSCSVMHEALHNHYTQKSLSLSPDYKDDDDK
chain: EPKSSDKTHTCPPCPAPELLGGPSVFLFPPKPKDTLMISRTPEVTCVVVDVSHEDPEVKFNWYVDGVEVHNAKTKPREEQYNSTYRVVSVLTVLHQDWLNGKEYKCKVSNKALPAPIEKTISKAKGQPREPQVCTLPPSRDELTKNQVSLWCLVKGFYPSDIAVEWESNGQPENNYKTTPPVLDSDGSFFLYSKLTVDKSRWQQGNVFSCSVMHEALHNRYTQKSLSLSP
light: DIVMTQSPLSLPVTPGEPASISCRASQSLVHSNRNTYLHWYQQKPGQAPRLLIYKVSNRFSGVPDRFSGSGSGTDFTLKISRVEAEDVGVYYCGQGTQVPYTFGQGTKLEIKRTVAAPSVFIFPPSDEQLKSGTASVVCLLNNFYPREAKVQWKVDNALQSGNSQESVTEQDSKDSTYSLSSTLTLSKADYEKHKVYACEVTHQGLSSPVTKSFNRGEC
notes: one-arm antibody

molecular target: T1, CD3 epsilon homodimer protein (UniProt P07766 23-126); assay: SPR Biacore T200, CD3 epsilon homodimer immobilized; vs unaltered GLS3000;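 further: antibody variants flowed as analyte over CD3 epsilon homodimer amine-coupled to a CM4 chip, at 25 °C in HBS-EP+ running buffer, fitted with Biacore T200 Evaluation Software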
T1 construct: construct not described; homodimer as printed; also called CD3 (CD3 epsilon)
T1 sequence (P07766 23-126): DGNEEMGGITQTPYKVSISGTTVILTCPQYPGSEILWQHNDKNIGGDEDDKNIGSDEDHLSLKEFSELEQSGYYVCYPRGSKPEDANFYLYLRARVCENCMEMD

Going from B1 to B2, the “KD ratio to GLS3000 (Affinity up)” value falls from 1.02 to 0.85.

Going from B3 to B4, the “KD ratio to GLS3000 (Affinity up)” value falls from 8.86 to 2.25.

First: B5
Second: B6
The “KD ratio to GLS3000 (Affinity up)” value of the first is higher: 1.08 for the first, 0.73 for the second.
